From PMC7828300 come the findings set out here.

This assay deals with AAV12 capsid viral protein (VP) (Adeno-associated virus 12). Briefly: cryo-EM structure.

In the case of “AAV12 capsid viral protein (VP) (natural protein)”, the stoichiometry N was found to be 60.
